Laboratory results from patent US20170145086A1 (VISTERRA, published 2017).

Experiments:
[1] = molecular target: T1, HA-GCN4 hAPRIL (amino acid residues 105-250) (human, UniProt O75888 105-250); assay: blocking ELISA, 4-parameter fit; blocked: human APRIL binding to human BCMA-Fc
T1 construct: Bought (R&D Systems); also called HA-tagged GCN4 human APRIL; HA-GCN4-huAPRIL; not shown: N-terminal HA tag; GCN4 isoleucine zipper oligomerization domain
T1 sequence: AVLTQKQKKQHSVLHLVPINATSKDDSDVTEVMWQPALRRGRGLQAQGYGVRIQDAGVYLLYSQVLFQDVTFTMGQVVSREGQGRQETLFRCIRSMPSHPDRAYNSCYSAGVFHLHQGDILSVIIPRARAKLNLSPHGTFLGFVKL
Description: FIGS. 19A-19B depict the antibody inhibition of APRIL binding to TNFSF receptors TACI (FIG. 19A) and BCMA (FIG. 19B). Assay is based on blocking ELISA using recombinant human APRIL (R&D Systems) and Human TACI-Fc. Inhibition was analyzed by non-linear regression using a four parameter fit.
Recombinant TACI-Fc or BCMA-Fc was coated on 96 well plates in 0.1 M carbonate-bicarbonate buffer (pH 9.6), overnight at 4° C. Plates were washed three times with 1×PBST (PBS+0.025% Tween 20) followed by blocking with 1% BSA in 1×PBS, 37° C. for 1 hour. All subsequent wash steps were carried out with 1×PBST. To assess antibody blocking, either 15 ng/mL or 50 ng/mL HA-GCN4-huAPRIL was preincubated with varying antibody concentrations ranging from 0.03-30 μg/mL in binding buffer comprised of 1% BSA and 0.025% Tween-20 in 1×PBS. Preincubation was carried out at 30° C. for 1 hour with mixing. Antibody-APRIL premix with 50 ng/mL APRIL or 15 ng/mL APRIL was then added to TACI-Fc coated or BCMA-Fc coated plates, respectively, and incubated for an additional hour at 30° C. HA-tagged APRIL binding to either receptor was quantified using a goat polyclonal anti-HA tag-HRP antibody (Abcam) added at a 1:10000 dilution followed by colorimetric development using 100 μl/well of freshly prepared TMB substrate (KPL) carried out for up to 30 minutes at room temperature before quenching enzymatic reaction by the addition of 1N sulfuric acid. ELISA signal was quantified by absorbance at 450 nm. ELISA data was analyzed by non-linear regression. IC₅₀ values were calculated based on a 4 parameter fit of antibody titration curves. […] Non-blocking antibodies Aprly-1 or Aprly-5 (Enzo Biosciences) were used as negative controls. Mouse specific, blocking antibody aprily-1-1 (Adipogen) was generally used as a positive control in experiments using mouse APRIL (HA-GCN4-mAPRIL).

[2] = molecular target: human TRAIL (TNFSF10, Adipogen) (human, UniProt P50591 95-281, limits assumed); assay: indirect ELISA, cytokine coated
Description: (§1) Selected anti-APRIL antibodies were evaluated for potential cross-reactivity with other members of the TNFa superfamily (TNFSF) family of cytokines, including: human TNFα (TNFSF2; Adipogen), human […] (TNFSF4, Adipogen), human FasL (TNFSF6, Adipogen), human TRAIL (TNFSF10, Adipogen), human RANKL (TNFSF11; Adipogen), human Tweak (TNFSF12; Abcam), human and mouse BAFF (TNFSF13B, AB Biosciences and Adipogen, respectively), and human LIGHT (TNFSF14, Adipogen). These cytokines share variable degree of sequence as well as higher order structural homologies. Among them, BAFF appears to be the most closely related to APRIL, with 29% identity and 53% amino acid sequence similarity.
(§2) Binding was evaluated by an indirect ELISA protocol using similar methods described for evaluation of APRIL binding; cytokines were immobilized to ELISA plate at 50 ng per well and then exposed to a solution of each of the test antibodies at a fixed concentration of 10 μg/ml Anti-human or anti-mouse Ig-HRP polyclonal antibody conjugates (Jackson Laboratories) were used for detection of antibody binding. The results presented in FIG. 36 indicated eleven of the twelve antibodies tested in this assay to specifically bind APRIL with no measurable cross-reactivity with the other TNFSF members substantially above assay background.

[3] = molecular target: mouse BAFF (TNFSF13B, Adipogen) (mouse, UniProt Q9WU72 127-309, limits assumed); assay: indirect ELISA, cytokine coated
Description: as §1, §2

[4] = molecular target: T2, human Tweak (TNFSF12; Abcam) (human, UniProt O43508 94-249, limits assumed); assay: indirect ELISA, cytokine coated
T2 sequence (looked up): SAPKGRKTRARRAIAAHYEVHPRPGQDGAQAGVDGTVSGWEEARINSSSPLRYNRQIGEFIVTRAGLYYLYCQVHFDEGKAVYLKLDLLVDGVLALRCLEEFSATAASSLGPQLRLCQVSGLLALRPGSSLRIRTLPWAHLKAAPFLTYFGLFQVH
Description: as §1, §2

[5] = molecular target: T3, human FasL (TNFSF6, Adipogen) (human, UniProt P48023 103-281, limits assumed); assay: indirect ELISA, cytokine coated
T3 sequence (looked up): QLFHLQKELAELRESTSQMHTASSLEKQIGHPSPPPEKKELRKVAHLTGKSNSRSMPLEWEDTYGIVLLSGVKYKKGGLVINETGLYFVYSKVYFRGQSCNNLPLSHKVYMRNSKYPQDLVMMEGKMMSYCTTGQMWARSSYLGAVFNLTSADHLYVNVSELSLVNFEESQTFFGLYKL
Description: as §1, §2

[6] = molecular target: human BAFF (TNFSF13B, AB Biosciences) (human, UniProt Q9Y275 134-285, limits assumed); assay: indirect ELISA, cytokine coated
Description: as §1, §2

[7] = molecular target: human LIGHT (TNFSF14, Adipogen) (human, UniProt O43557 89-240, limits assumed); assay: indirect ELISA, cytokine coated
Description: as §1, §2

[8] = molecular target: human TNFα (TNFSF2; Adipogen) (human, UniProt P01375 85-233, limits assumed); assay: indirect ELISA, cytokine coated
Description: as §1, §2

[9] = molecular target: T4, human RANKL (TNFSF11; Adipogen) (human, UniProt O14788 152-317, limits assumed); assay: indirect ELISA, cytokine coated
T4 sequence (looked up): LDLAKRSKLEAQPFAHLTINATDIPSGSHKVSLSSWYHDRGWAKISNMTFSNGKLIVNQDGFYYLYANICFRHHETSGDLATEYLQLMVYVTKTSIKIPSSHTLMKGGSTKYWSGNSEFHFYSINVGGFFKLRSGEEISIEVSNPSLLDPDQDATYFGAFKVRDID
Description: as §1, §2

Chain of human BAFF (TNFSF13B, AB Biosciences) (Q9Y275 134-285 limits assumed): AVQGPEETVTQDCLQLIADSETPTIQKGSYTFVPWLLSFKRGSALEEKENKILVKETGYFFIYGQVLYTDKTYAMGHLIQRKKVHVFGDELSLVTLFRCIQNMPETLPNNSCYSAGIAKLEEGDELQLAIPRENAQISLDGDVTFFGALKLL
Chain of human TNFα (TNFSF2; Adipogen) (P01375 85-233 limits assumed): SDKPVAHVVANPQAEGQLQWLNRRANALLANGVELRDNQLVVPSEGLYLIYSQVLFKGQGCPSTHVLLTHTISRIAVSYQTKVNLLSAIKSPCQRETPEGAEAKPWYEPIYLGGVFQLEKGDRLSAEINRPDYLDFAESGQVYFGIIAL
Chain of human LIGHT (TNFSF14, Adipogen) (O43557 89-240 limits assumed): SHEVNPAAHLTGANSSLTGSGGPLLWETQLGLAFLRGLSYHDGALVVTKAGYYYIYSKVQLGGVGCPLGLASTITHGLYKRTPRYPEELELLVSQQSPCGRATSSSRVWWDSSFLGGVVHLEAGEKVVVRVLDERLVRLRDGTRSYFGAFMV
Chain of human TRAIL (TNFSF10, Adipogen) (P50591 95-281 limits assumed): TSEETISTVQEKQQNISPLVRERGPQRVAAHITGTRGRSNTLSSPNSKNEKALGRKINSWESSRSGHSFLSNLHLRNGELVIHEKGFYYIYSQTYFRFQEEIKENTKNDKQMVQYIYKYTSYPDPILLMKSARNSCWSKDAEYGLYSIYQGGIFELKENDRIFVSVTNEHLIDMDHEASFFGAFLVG
Chain of mouse BAFF (TNFSF13B, Adipogen) (Q9WU72 127-309 limits assumed): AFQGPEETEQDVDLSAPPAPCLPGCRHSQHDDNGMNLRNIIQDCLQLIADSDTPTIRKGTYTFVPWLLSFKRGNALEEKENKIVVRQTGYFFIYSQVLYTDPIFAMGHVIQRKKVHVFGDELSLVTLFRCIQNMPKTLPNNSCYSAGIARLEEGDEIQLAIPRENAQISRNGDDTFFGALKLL

B1: 4237 (antibody, V domains shown)
VH: QAHLKESGPGLVAPSQSLSITCTVSGFSLTDYDVHWVRQSPGKGLEWLGVIWNDGSTDYNTAFISRLTISKDNSKSQVFFKMNSLQADDTAIYYCARNWYGGYWFAYWGQGTLVTVSA
VL: DIQMTQSPASLSASAGETVTITCRSSENIYSYLAWYQQKQGKSPQLLVYNANALAEGVPSRFSGSGSVTQFSLKINSLQPEDFGSYYCQHHYGTPFTFGSGTKLEIK
notes: also called monoclonal antibody 4237
560 pM: IC50 [1]
no binding (tested: 10 µg/ml (p-1128)): binding result [2] | binding result [3] | binding result [4] | binding result [5] | binding result [6] | binding result [7] | binding result [8] | binding result [9]
